Source: EP4796567A2 (Nepenthe Bioscience, LLC, dated 2026)

T1: CD79 (UniProt P11912 33-143; P40259 29-159, limits assumed)
T1 construct: also called CD79 antigen; soluble biotinylated CD79 antigen
T1 sequence (looked up) 1: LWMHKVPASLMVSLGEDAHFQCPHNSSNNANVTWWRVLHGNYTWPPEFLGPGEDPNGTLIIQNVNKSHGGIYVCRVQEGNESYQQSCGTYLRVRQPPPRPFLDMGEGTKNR
T1 sequence (looked up) 2: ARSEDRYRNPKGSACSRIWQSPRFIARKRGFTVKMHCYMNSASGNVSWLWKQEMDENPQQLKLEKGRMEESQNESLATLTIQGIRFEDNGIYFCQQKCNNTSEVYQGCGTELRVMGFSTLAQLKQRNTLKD


Legend:
[1] = molecular target: T1, CD79; assay: binding kinetics to CD79; method not named (antibody is the 'Loading Sample')
[2] = molecular target: T1, CD79; assay: antigen binding kinetics; method not named (antibody is the 'Loading Sample')
[3] = molecular target: T1, CD79; assay: binding kinetics of full length IgG to CD79; method not named (antibody is the 'Loading Sample')

Kd [1] [nM] | koff [1] [s⁻¹] | kon [1] [M⁻¹ s⁻¹] | Kd [2] [nM] | koff [2] [s⁻¹] | kon [2] [M⁻¹ s⁻¹] | Kd [3] [nM] | koff [3] [s⁻¹] | kon [3] [M⁻¹ s⁻¹] | Binder
45 | 0.0041 | 91000 | 9.22 | 0.000384 | 41700 | 5.1 | 0.000429 | 84100 | humanized anti-CD79 antibody H1L2 (antibody, V domains shown, also called LB495/PRI47; PRI43/PRI47) VH: QVQLVQSGAEVKKPGASVKVSCKASGYAFSYSWMNWVRQAPGQGLEWMGRIYPENGDTNYNGKFKGRVTMTRDTSISTAYMELSRLRSDDTAVYYCARWVYGYPHFDYWGQGTLVTVSS VL: DVVMTQSPLSLPVTLGQPASISCKSSQSLLDSDGKTYLNWLQQRPGQSPRRLIYLVSKLDSGVPDRFSGSGSGTDFTLKISRVEAEDVGVYYCWQGTHFPFTFGGGTKVEIK
– | – | – | 0.706 | 4.14e-05 | 58700 | 2 | 0.000159 | 79700 | humanized anti-CD79 antibody LB517/LB519 (antibody, V domains shown, Full length IgG produced from 293 cells; also called hCur14 FALA) VH: QVQLVQSGAEVKKPGASVKVSCKASGYAFSYSWMNWVRQAPGQGLEWMGRIYPENGDTNYNGKFKGRVTMTRDTSISTAYMELSRLRSDDTAVYYCARWVYGLPHFDYWGQGTLVTVSS VL: DVVMTQSPLSLPVTLGQPASISCKSSQSLLDSDGKTYLNWLQQRPGQSPRRLIYLVSKLDSGVPDRFSGSGSGTDFTLKISRVEAEDVGVYYCWQGTHLPFTFGGGTKVEIK
– | – | – | 0.837 | 5.11e-05 | 61000 | – | – | – | engineered anti-CD79 antibody LB632/519 (antibody, V domains shown, Both NG motifs of VH CDR2 engineered; Produced in 293 cells by transient transfection; also called LB632/LB519) VH: QVQLVQSGAEVKKPGASVKVSCKASGYAFSYSWMNWVRQAPGQGLEWMGRIYPESGDTNYAGKFKGRVTMTRDTSISTAYMELSRLRSDDTAVYYCARWVYGLPHFDYWGQGTLVTVSS VL: DVVMTQSPLSLPVTLGQPASISCKSSQSLLDSDGKTYLNWLQQRPGQSPRRLIYLVSKLDSGVPDRFSGSGSGTDFTLKISRVEAEDVGVYYCWQGTHLPFTFGGGTKVEIK
